Literature values, collected in paper PMC6104694.
Like-named read-outs stand apart in the source and are kept apart here.

Key:
[1] = molecular target: presenilin-1 C-terminal fragment 23 amino acid CTF (Homo sapiens) (UniProt P49768)
[2] = molecular target: presenilin-1 C-terminal fragment 23 amino acid CTF (Homo sapiens) (UniProt P49768); remark: listed apart in the source

Chain of KChIP3 (calsenilin) (Q9Y2W7 whole entry): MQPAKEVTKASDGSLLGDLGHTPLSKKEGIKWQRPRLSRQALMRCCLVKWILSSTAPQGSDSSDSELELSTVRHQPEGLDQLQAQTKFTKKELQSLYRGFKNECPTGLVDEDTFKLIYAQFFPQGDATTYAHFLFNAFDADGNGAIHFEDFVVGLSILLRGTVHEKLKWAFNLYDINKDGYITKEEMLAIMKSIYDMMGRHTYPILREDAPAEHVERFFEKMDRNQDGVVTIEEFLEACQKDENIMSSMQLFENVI

Kd [1]: 0.6 µM
Kd [2]: 183 µM
Substance: KChIP3 (calsenilin) (from UniProt Q9Y2W7)
